Reference: patent US12630600B2 (MEDIMMUNE LIMITED, priority 2022, dated 2026)
Starred links: 1 amine or outer side, 2 acyl side, 3 side chain; linkers in the order of their positions; H or OH if unused. Non-standard residues stand in square brackets, D forms with d. Groups on a side chain read outwards from the residue. No end group written: not given here. *: point of attachment. C20 diacid = O=C(O)CCCCCCCCCCCCCCCCCCC(=O)*; C18 diacid = O=C(O)CCCCCCCCCCCCCCCCC(=O)*; γGlu = O=C(O)[C@H](CCC(=O)[*:2])N[*:1]; αMeF = C[C@](N)(Cc1ccccc1)C(=O)O; AEEA = NCCOCCOCC(=O)O; Aib = CC(C)(N)C(=O)O

B1: Peptide 419 (peptide)
peptide: H[Aib]QGTFTSDVSK[αMeF]LDTK([AEEA-AEEA-γGlu-C18 diacid])RAQDFVRWLE[Aib]E-OH
modifications: N-terminus assumed
SMILES: CC(C)C[C@H](NC(=O)[C@H](Cc1c[nH]c2ccccc12)NC(=O)[C@H](CCCNC(=N)N)NC(=O)[C@@H](NC(=O)[C@H](Cc1ccccc1)NC(=O)[C@H](CC(=O)O)NC(=O)[C@H](CCC(N)=O)NC(=O)[C@H](C)NC(=O)[C@H](CCCNC(=N)N)NC(=O)[C@H](CCCCNC(=O)COCCOCCNC(=O)COCCOCCNC(=O)CC[C@H](NC(=O)CCCCCCCCCCCCCCCCC(=O)O)C(=O)O)NC(=O)[C@@H](NC(=O)[C@H](CC(=O)O)NC(=O)[C@H](CC(C)C)NC(=O)[C@](C)(Cc1ccccc1)NC(=O)[C@H](CCCCN)NC(=O)[C@H](CO)NC(=O)[C@@H](NC(=O)[C@H](CC(=O)O)NC(=O)[C@H](CO)NC(=O)[C@@H](NC(=O)[C@H](Cc1ccccc1)NC(=O)[C@@H](NC(=O)CNC(=O)[C@H](CCC(N)=O)NC(=O)C(C)(C)NC(=O)[C@@H](N)Cc1c[nH]cn1)[C@@H](C)O)[C@@H](C)O)C(C)C)[C@@H](C)O)C(C)C)C(=O)N[C@@H](CCC(=O)O)C(=O)NC(C)(C)C(=O)N[C@@H](CCC(=O)O)C(=O)O
B2: Peptide 415 (peptide)
peptide: H[Aib]QGTFTSDVSK[αMeF]LESK([AEEA-AEEA-γGlu-C18 diacid])RAQDFVRWLEA[Aib]G-OH
modifications: N-terminus assumed
SMILES: CC(C)C[C@H](NC(=O)[C@H](Cc1c[nH]c2ccccc12)NC(=O)[C@H](CCCNC(=N)N)NC(=O)[C@@H](NC(=O)[C@H](Cc1ccccc1)NC(=O)[C@H](CC(=O)O)NC(=O)[C@H](CCC(N)=O)NC(=O)[C@H](C)NC(=O)[C@H](CCCNC(=N)N)NC(=O)[C@H](CCCCNC(=O)COCCOCCNC(=O)COCCOCCNC(=O)CC[C@H](NC(=O)CCCCCCCCCCCCCCCCC(=O)O)C(=O)O)NC(=O)[C@H](CO)NC(=O)[C@H](CCC(=O)O)NC(=O)[C@H](CC(C)C)NC(=O)[C@](C)(Cc1ccccc1)NC(=O)[C@H](CCCCN)NC(=O)[C@H](CO)NC(=O)[C@@H](NC(=O)[C@H](CC(=O)O)NC(=O)[C@H](CO)NC(=O)[C@@H](NC(=O)[C@H](Cc1ccccc1)NC(=O)[C@@H](NC(=O)CNC(=O)[C@H](CCC(N)=O)NC(=O)C(C)(C)NC(=O)[C@@H](N)Cc1c[nH]cn1)[C@@H](C)O)[C@@H](C)O)C(C)C)C(C)C)C(=O)N[C@@H](CCC(=O)O)C(=O)N[C@@H](C)C(=O)NC(C)(C)C(=O)NCC(=O)O
B3: Peptide 413 (peptide)
peptide: H[Aib]QGTFTSDVSK[αMeF]LDTK([AEEA-AEEA-γGlu-γGlu-C20 diacid])RAQDFVAWLEAGG-OH
B4: Peptide 418 (peptide)
peptide: H[Aib]QGTFTSDVSK[αMeF]LDTK([AEEA-AEEA-γGlu-γGlu-C20 diacid])RAQDFVAWLEA[Aib]G-OH
modifications: N-terminus assumed
SMILES: CC(C)C[C@H](NC(=O)[C@H](Cc1c[nH]c2ccccc12)NC(=O)[C@H](C)NC(=O)[C@@H](NC(=O)[C@H](Cc1ccccc1)NC(=O)[C@H](CC(=O)O)NC(=O)[C@H](CCC(N)=O)NC(=O)[C@H](C)NC(=O)[C@H](CCCNC(=N)N)NC(=O)[C@H](CCCCNC(=O)COCCOCCNC(=O)COCCOCCNC(=O)CC[C@H](NC(=O)CC[C@H](NC(=O)CCCCCCCCCCCCCCCCCCC(=O)O)C(=O)O)C(=O)O)NC(=O)[C@@H](NC(=O)[C@H](CC(=O)O)NC(=O)[C@H](CC(C)C)NC(=O)[C@](C)(Cc1ccccc1)NC(=O)[C@H](CCCCN)NC(=O)[C@H](CO)NC(=O)[C@@H](NC(=O)[C@H](CC(=O)O)NC(=O)[C@H](CO)NC(=O)[C@@H](NC(=O)[C@H](Cc1ccccc1)NC(=O)[C@@H](NC(=O)CNC(=O)[C@H](CCC(N)=O)NC(=O)C(C)(C)NC(=O)[C@@H](N)Cc1c[nH]cn1)[C@@H](C)O)[C@@H](C)O)C(C)C)[C@@H](C)O)C(C)C)C(=O)N[C@@H](CCC(=O)O)C(=O)N[C@@H](C)C(=O)NC(C)(C)C(=O)NCC(=O)O
B5: Peptide 414 (peptide)
peptide: H[Aib]QGTFTSDVSK[αMeF]LDKK([AEEA-AEEA-γGlu-C18 diacid])RARDFVRWLL[Aib]E-OH
modifications: N-terminus assumed
SMILES: CC(C)C[C@H](NC(=O)[C@H](Cc1c[nH]c2ccccc12)NC(=O)[C@H](CCCNC(=N)N)NC(=O)[C@@H](NC(=O)[C@H](Cc1ccccc1)NC(=O)[C@H](CC(=O)O)NC(=O)[C@H](CCCNC(=N)N)NC(=O)[C@H](C)NC(=O)[C@H](CCCNC(=N)N)NC(=O)[C@H](CCCCNC(=O)COCCOCCNC(=O)COCCOCCNC(=O)CC[C@H](NC(=O)CCCCCCCCCCCCCCCCC(=O)O)C(=O)O)NC(=O)[C@H](CCCCN)NC(=O)[C@H](CC(=O)O)NC(=O)[C@H](CC(C)C)NC(=O)[C@](C)(Cc1ccccc1)NC(=O)[C@H](CCCCN)NC(=O)[C@H](CO)NC(=O)[C@@H](NC(=O)[C@H](CC(=O)O)NC(=O)[C@H](CO)NC(=O)[C@@H](NC(=O)[C@H](Cc1ccccc1)NC(=O)[C@@H](NC(=O)CNC(=O)[C@H](CCC(N)=O)NC(=O)C(C)(C)NC(=O)[C@@H](N)Cc1c[nH]cn1)[C@@H](C)O)[C@@H](C)O)C(C)C)C(C)C)C(=O)N[C@@H](CC(C)C)C(=O)NC(C)(C)C(=O)N[C@@H](CCC(=O)O)C(=O)O
B6: Peptide 416 (peptide)
peptide: H[Aib]QGTFTSDVSK[αMeF]LESK([AEEA-AEEA-γGlu-C20 diacid])RAQDFVRWLEA[Aib]G-OH
modifications: N-terminus assumed
SMILES: CC(C)C[C@H](NC(=O)[C@H](Cc1c[nH]c2ccccc12)NC(=O)[C@H](CCCNC(=N)N)NC(=O)[C@@H](NC(=O)[C@H](Cc1ccccc1)NC(=O)[C@H](CC(=O)O)NC(=O)[C@H](CCC(N)=O)NC(=O)[C@H](C)NC(=O)[C@H](CCCNC(=N)N)NC(=O)[C@H](CCCCNC(=O)COCCOCCNC(=O)COCCOCCNC(=O)CC[C@H](NC(=O)CCCCCCCCCCCCCCCCCCC(=O)O)C(=O)O)NC(=O)[C@H](CO)NC(=O)[C@H](CCC(=O)O)NC(=O)[C@H](CC(C)C)NC(=O)[C@](C)(Cc1ccccc1)NC(=O)[C@H](CCCCN)NC(=O)[C@H](CO)NC(=O)[C@@H](NC(=O)[C@H](CC(=O)O)NC(=O)[C@H](CO)NC(=O)[C@@H](NC(=O)[C@H](Cc1ccccc1)NC(=O)[C@@H](NC(=O)CNC(=O)[C@H](CCC(N)=O)NC(=O)C(C)(C)NC(=O)[C@@H](N)Cc1c[nH]cn1)[C@@H](C)O)[C@@H](C)O)C(C)C)C(C)C)C(=O)N[C@@H](CCC(=O)O)C(=O)N[C@@H](C)C(=O)NC(C)(C)C(=O)NCC(=O)O
B7: Peptide 420 (peptide)
peptide: H[Aib]QGTFTSDVSK[αMeF]LDKK([AEEA-AEEA-γGlu-C18 diacid])RAQDFVRWLL[Aib]E-NH2
modifications: N-terminus assumed
SMILES: CC(C)C[C@H](NC(=O)[C@H](Cc1c[nH]c2ccccc12)NC(=O)[C@H](CCCNC(=N)N)NC(=O)[C@@H](NC(=O)[C@H](Cc1ccccc1)NC(=O)[C@H](CC(=O)O)NC(=O)[C@H](CCC(N)=O)NC(=O)[C@H](C)NC(=O)[C@H](CCCNC(=N)N)NC(=O)[C@H](CCCCNC(=O)COCCOCCNC(=O)COCCOCCNC(=O)CC[C@H](NC(=O)CCCCCCCCCCCCCCCCC(=O)O)C(=O)O)NC(=O)[C@H](CCCCN)NC(=O)[C@H](CC(=O)O)NC(=O)[C@H](CC(C)C)NC(=O)[C@](C)(Cc1ccccc1)NC(=O)[C@H](CCCCN)NC(=O)[C@H](CO)NC(=O)[C@@H](NC(=O)[C@H](CC(=O)O)NC(=O)[C@H](CO)NC(=O)[C@@H](NC(=O)[C@H](Cc1ccccc1)NC(=O)[C@@H](NC(=O)CNC(=O)[C@H](CCC(N)=O)NC(=O)C(C)(C)NC(=O)[C@@H](N)Cc1c[nH]cn1)[C@@H](C)O)[C@@H](C)O)C(C)C)C(C)C)C(=O)N[C@@H](CC(C)C)C(=O)NC(C)(C)C(=O)N[C@@H](CCC(=O)O)C(N)=O
B8: Peptide 417 (peptide)
peptide: H[Aib]QGTFTSDVSK[αMeF]LDTK([AEEA-AEEA-γGlu-γGlu-C18 diacid])RAQDFVAWLEA[Aib]G-OH
modifications: N-terminus assumed
SMILES: CC(C)C[C@H](NC(=O)[C@H](Cc1c[nH]c2ccccc12)NC(=O)[C@H](C)NC(=O)[C@@H](NC(=O)[C@H](Cc1ccccc1)NC(=O)[C@H](CC(=O)O)NC(=O)[C@H](CCC(N)=O)NC(=O)[C@H](C)NC(=O)[C@H](CCCNC(=N)N)NC(=O)[C@H](CCCCNC(=O)COCCOCCNC(=O)COCCOCCNC(=O)CC[C@H](NC(=O)CC[C@H](NC(=O)CCCCCCCCCCCCCCCCC(=O)O)C(=O)O)C(=O)O)NC(=O)[C@@H](NC(=O)[C@H](CC(=O)O)NC(=O)[C@H](CC(C)C)NC(=O)[C@](C)(Cc1ccccc1)NC(=O)[C@H](CCCCN)NC(=O)[C@H](CO)NC(=O)[C@@H](NC(=O)[C@H](CC(=O)O)NC(=O)[C@H](CO)NC(=O)[C@@H](NC(=O)[C@H](Cc1ccccc1)NC(=O)[C@@H](NC(=O)CNC(=O)[C@H](CCC(N)=O)NC(=O)C(C)(C)NC(=O)[C@@H](N)Cc1c[nH]cn1)[C@@H](C)O)[C@@H](C)O)C(C)C)[C@@H](C)O)C(C)C)C(=O)N[C@@H](CCC(=O)O)C(=O)N[C@@H](C)C(=O)NC(C)(C)C(=O)NCC(=O)O

How the values were obtained:
human GLP-1 receptor = human GLP-1 receptor (human, UniProt P43220); assay: cell-based or functional assay
human glucagon receptor = human glucagon receptor (human, UniProt P47871); assay: cell-based or functional assay

Binder	cAMP production EC50 (human GLP-1 receptor)	cAMP production EC50 (human glucagon receptor)
B1	96.9 pM	264 pM
B2	14.7 pM	301 pM
B3	406 pM	1020 pM
B4	88.1 pM	222 pM
B5	32.3 pM	26.9 pM
B6	67.7 pM	581 pM
B7	23.1 pM	36.9 pM
B8	33.9 pM	16.4 pM
